Molecular target: T1, αβγENaC (Rattus norvegicus, UniProt P37089+P37090+P37091, S518C)
T1 construct: expressed in transfected cells; host or cells: Xenopus laevis oocytes (cRNA injection)
T1 sequence (P37089 1-698): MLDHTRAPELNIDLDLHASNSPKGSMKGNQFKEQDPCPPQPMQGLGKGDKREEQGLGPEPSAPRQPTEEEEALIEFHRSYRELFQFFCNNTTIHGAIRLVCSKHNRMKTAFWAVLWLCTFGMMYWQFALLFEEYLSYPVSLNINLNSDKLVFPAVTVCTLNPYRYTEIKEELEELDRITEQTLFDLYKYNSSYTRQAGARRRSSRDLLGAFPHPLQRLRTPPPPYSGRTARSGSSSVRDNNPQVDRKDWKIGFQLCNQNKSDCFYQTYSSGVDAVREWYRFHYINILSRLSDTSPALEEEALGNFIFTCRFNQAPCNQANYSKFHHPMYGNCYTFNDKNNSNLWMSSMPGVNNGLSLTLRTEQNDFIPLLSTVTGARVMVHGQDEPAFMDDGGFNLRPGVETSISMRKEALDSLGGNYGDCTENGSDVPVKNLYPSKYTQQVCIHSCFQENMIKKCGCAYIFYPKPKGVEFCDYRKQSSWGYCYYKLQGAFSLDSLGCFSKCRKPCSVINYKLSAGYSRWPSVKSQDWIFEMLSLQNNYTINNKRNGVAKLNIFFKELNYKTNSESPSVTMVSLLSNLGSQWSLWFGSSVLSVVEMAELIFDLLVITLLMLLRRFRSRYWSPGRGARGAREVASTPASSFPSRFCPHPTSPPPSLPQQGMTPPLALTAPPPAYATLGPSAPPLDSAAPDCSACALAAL
T1 sequence (P37090 1-638 S518C): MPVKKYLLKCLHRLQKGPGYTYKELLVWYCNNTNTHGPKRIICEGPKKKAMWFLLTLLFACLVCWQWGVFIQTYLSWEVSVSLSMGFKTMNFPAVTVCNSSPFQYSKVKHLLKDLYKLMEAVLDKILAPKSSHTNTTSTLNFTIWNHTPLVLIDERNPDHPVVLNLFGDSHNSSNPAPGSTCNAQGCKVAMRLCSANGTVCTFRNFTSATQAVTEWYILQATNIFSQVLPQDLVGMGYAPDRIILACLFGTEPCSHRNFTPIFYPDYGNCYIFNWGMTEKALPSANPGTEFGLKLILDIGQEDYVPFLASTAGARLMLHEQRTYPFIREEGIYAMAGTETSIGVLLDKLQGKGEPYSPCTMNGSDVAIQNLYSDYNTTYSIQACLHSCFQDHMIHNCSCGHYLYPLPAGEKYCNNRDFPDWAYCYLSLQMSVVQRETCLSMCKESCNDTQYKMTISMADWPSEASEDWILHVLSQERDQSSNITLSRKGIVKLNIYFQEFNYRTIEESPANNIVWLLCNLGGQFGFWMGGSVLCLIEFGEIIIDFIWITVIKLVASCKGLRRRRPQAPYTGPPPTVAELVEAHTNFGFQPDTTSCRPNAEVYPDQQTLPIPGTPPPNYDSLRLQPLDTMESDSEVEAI
T1 sequence (P37091 1-650): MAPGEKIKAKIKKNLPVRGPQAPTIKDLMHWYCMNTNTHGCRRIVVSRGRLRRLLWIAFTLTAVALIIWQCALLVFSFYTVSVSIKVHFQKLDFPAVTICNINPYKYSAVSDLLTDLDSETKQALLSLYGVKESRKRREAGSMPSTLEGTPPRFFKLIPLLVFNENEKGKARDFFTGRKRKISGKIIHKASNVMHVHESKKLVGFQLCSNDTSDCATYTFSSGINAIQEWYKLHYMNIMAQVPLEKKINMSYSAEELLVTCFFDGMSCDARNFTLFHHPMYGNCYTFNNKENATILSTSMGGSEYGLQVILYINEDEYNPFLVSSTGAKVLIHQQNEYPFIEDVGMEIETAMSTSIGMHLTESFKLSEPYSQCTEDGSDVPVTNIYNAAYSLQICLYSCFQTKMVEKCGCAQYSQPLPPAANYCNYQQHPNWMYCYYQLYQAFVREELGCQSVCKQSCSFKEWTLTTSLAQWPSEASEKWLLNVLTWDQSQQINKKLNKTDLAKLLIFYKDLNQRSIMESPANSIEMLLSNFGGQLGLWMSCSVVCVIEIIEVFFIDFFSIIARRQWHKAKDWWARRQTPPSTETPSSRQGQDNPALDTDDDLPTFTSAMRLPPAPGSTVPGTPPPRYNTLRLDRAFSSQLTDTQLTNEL
Assay: Amiloride-sensitive whole cell current, two electrode voltage clamp, Xenopus laevis oocytes expressing αβγENaC
Type: cell-based
Conditions: Po increased to 1.0 by MTSET; SPLUNC1 coexpressed

B1: SPLUNC1: human SPLUNC1 (SEQ ID NO:1), 256 amino acid secreted PLUNC family protein; rSPLUNC1 is the purified V5/6His-tagged recombinant form (protein, listed as Homo sapiens)
chain: MFQTGGLIVFYGLLAQTMAQFGGLPVPLDQTLPLNVNPALPLSPTGLAGSLTNALSNGLLSGGLLGILENLPLLDILKPGGGTSGGLLGGLLGKVTSVIPGLNNIIDIKVTDPQLLELGLVQSPDGHRLYVTIPLGIKLQVNTPLVGASLLRLAVKLDITAEILAVRDKQERIHLVLGDCTHSPGSLQISLLDGLGPLPIQGLLDSLTGILNKVLPELVQGNVCPLVNEVLRGLDITLVHDIVNMLIHGLQFVIKV
modifications: V5/6His tag in recombinant form
notes: rSPLUNC1 is the purified V5/6His-tagged recombinant form
  overall current of ENaC containing βS518C mutant after MTSET: still reduced
